Experimental findings from paper PMC10327126 are described below.

This experiment deals with GST-NTF2L-F33W (human). Put plainly: SPR. Background: Surface plasmon resonance follows binding to a sensor surface in real time, without labels.

Substance “N_(1–25)-WT peptide (from UniProt P0DTC9 1-25)” gave an equilibrium dissociation constant (Kd) of 1920 nM.

For orientation: Kd means the concentration at which binding is half-saturated.
